We go through one molecule from patent publication US5459256A, “Lipophilic, aminohydrolase-activated prodrugs” (priority 1991, dated 1995).

Data set [1] relates to HIV-1/IIIB (CD4^+ ATH8 cells). Kind of data set: HIV cytopathic effect inhibition assay in ATH8 cells (% protection). The data set is classed as cell-based. Particulars: additive alone, no test compound. The procedure:
(§1) HIV Cytopathic Effect Inhibition Assay.
The HIV cytopathic effect inhibition assay was performed as previously described. (Mitsuya, H. & Broder, S. Proc. Nat. Acad. Sci. USA 1986, 83, 1911) Briefly, 200,000 target CD4^+ ATH8 cells were exposed to cell-free HIV-1/IIIB at a dose of 43 (or 1087 for compound 1g) TCID50 (50% tissue culture infectious dose) for 1 h, resuspended in 2 ml of fresh culture media containing interleukin 2, and cultured at 37° C. with or without test compounds in 5% CO2 -containing humidified air. On day 8 in culture, the viable cells were counted by using the dye exclusion method. All compounds, including inactives, were evaluated a minimum of two times in separate experiments. […] The % protection against the virus was determined by the following formula: 100 times [(the number of viable cells exposed to HIV-1 and cultured in the presence of the compound minus the number of viable cells exposed to HIV-1 and cultured in the absence of compound) divided by (the number of viable cells cultured alone minus the number of viable cells exposed to HIV-1 and cultured in the absence of the compound)]. The % toxicity of a compound on the target cells was determined by the following formula: 100 times [1 minus (the number of total viable cells cultured in the presence of the compound divided by the number of total viable cells cultured alone)]. […]
For orientation: Cytopathic effects are the visible damage that an infection or toxin causes in cultured cells.

The next data set has as its system CD4^+ ATH8 cells. Kind of data set: Toxicity on ATH8 target cells (% toxicity, dye exclusion). The note with it: additive alone, no test compound. The data set is classed as cell-based. The procedure: as §1
The HIV cytopathic effect inhibition assay was performed as previously described. […] On day 8 in culture, the viable cells were counted by using the dye exclusion method. All compounds, including inactives, were evaluated a minimum of two times in separate experiments. Data reported in Table II are from representative tests. The % protection against the virus was determined by the following formula: 100 times [(the number of viable cells exposed to HIV-1 and cultured in the presence of the compound minus the number of viable cells exposed to HIV-1 and cultured in the absence of compound) divided by (the number of viable cells cultured alone minus the number of viable cells exposed to HIV-1 and cultured in the absence of the compound)]. The % toxicity of a compound on the target cells was determined by the following formula: 100 times [1 minus (the number of total viable cells cultured in the presence of the compound divided by the number of total viable cells cultured alone)]. Calculated percentages equal to or less than zero are expressed as 0%.

B1: ADA: adenosine deaminase (adenosine aminohydrolase, EC 3.5.4.4) from calf intestinal mucosa (protein, UniProt P56658 2-363, looked up)
Adenosine deaminase: AQTPAFNKPKVELHVHLDGAIKPETILYYGRKRGIALPADTPEELQNIIGMDKPLSLPEFLAKFDYYMPAIAGCREAVKRIAYEFVEMKAKDGVVYVEVRYSPHLLANSKVEPIPWNQAEGDLTPDEVVSLVNQGLQEGERDFGVKVRSILCCMRHQPSWSSEVVELCKKYREQTVVAIDLAGDETIEGSSLFPGHVKAYAEAVKSGVHRTVHAGEVGSANVVKEAVDTLKTERLGHGYHTLEDATLYNRLRQENMHFEVCPWSSYLTGAWKPDTEHPVVRFKNDQVNYSLNTDDPLIFKSTLDTDYQMTKNEMGFTEEEFKRLNINAAKSSFLPEDEKKELLDLLYKAYGMPSPASAEQCL
With B1, the “protection by additive alone (in words)” value in data set [1] is reported as “neither influenced the viability nor protected infected ATH8 cells”. For the same molecule, the “toxicity / viability effect of additive alone (in words)” value with CD4^+ ATH8 cells is reported as “neither influenced the viability”.
